What was measured:
Experiment in all cases: cell-based or functional assay
[1] = molecular target: Env of HIV isolate 00836-2.5 (clade C) (HIV)
[2] = molecular target: Env of HIV isolate 235-47 (clade AG) (HIV)
[3] = molecular target: Env of HIV isolate 247-23 (clade D) (HIV)
[4] = molecular target: Env of HIV isolate 25711-2.4 (clade C) (HIV)
[5] = molecular target: Env of HIV isolate 288.38 (clade C) (HIV)
[6] = molecular target: Env of HIV isolate 3016.v5.c45 (clade D) (HIV)
[7] = molecular target: Env of HIV isolate 3168.v4.c10 (clade C) (HIV)
[8] = molecular target: Env of HIV isolate 3326.v4.c3 (clade CD) (HIV)
[9] = molecular target: Env of HIV isolate 3337.v2.c6 (clade CD) (HIV)
[10] = molecular target: Env of HIV isolate 426c (clade C) (HIV)
[11] = molecular target: Env of HIV isolate 5768.04 (clade B) (HIV)
[12] = molecular target: Env of HIV isolate 620345.c1 (clade AE) (HIV)
[13] = molecular target: Env of HIV isolate 6785.v5.c14 (clade C) (HIV)
[14] = molecular target: Env of HIV isolate 89.6.DG (clade B) (HIV)
[15] = molecular target: Env of HIV isolate 928-28 (clade AG) (HIV)
[16] = molecular target: Env of HIV isolate AC10.29 (clade B) (HIV)
[17] = molecular target: Env of HIV isolate ADA.DG (clade B) (HIV)
[18] = molecular target: Env of HIV isolate BB539.2B13 (clade A) (HIV)
[19] = molecular target: Env of HIV isolate BJOX002000.03.2 (clade BC) (HIV)
[20] = molecular target: Env of HIV isolate BJOX028000.10.3 (clade AE) (HIV)
[21] = molecular target: Env of HIV isolate CM244.ec1 (clade AE) (HIV)
[22] = molecular target: Env of HIV isolate CNE31 (clade C) (HIV)
[23] = molecular target: Env of HIV isolate JRFL.JB (clade B) (HIV)
[24] = molecular target: Env of HIV isolate KER2018.11 (clade A) (HIV)
[25] = molecular target: Env of HIV isolate MB201.A1 (clade A) (HIV)
[26] = molecular target: Env of HIV isolate P0402.c2.11 (clade G) (HIV)
[27] = molecular target: Env of HIV isolate Q168.a2 (clade AD) (HIV)
[28] = molecular target: Env of HIV isolate Q769.d22 (clade A) (HIV)
[29] = molecular target: Env of HIV isolate T257-31 (clade AG) (HIV)
[30] = molecular target: Env of HIV isolate T266-60 (clade AG) (HIV)
[31] = molecular target: Env of HIV isolate T280-5 (clade AG) (HIV)
[32] = molecular target: Env of HIV isolate T33-7 (clade AG) (HIV)
[33] = molecular target: Env of HIV isolate TZBD.02 (clade C) (HIV)
[34] = molecular target: Env of HIV isolate UG024.2 (clade D) (HIV)
[35] = molecular target: Env of HIV isolate X1632.S2.B10 (clade G) (HIV)
[36] = molecular target: Env of HIV isolate X2131.C1.B5 (clade G) (HIV)
[37] = molecular target: Env of HIV isolate ZM233.6 (clade C) (HIV)
[38] = molecular target: Envelope protein of SIVmac251.30.SG3 (clade NA)
[39] = molecular target: HIV Env of isolate 16845-2.22 (HIV)
[40] = molecular target: HIV Env of isolate 6644.v2.c33 (HIV)
[41] = molecular target: HIV Env of isolate CH181.12 (HIV)
[42] = molecular target: HIV Env of isolate CNE20 (HIV)
[43] = molecular target: HIV Env of isolate CNE30 (HIV)
[44] = molecular target: HIV Env of isolate DU172.17 (HIV)
[45] = molecular target: HIV Env of isolate TZA125.17 (HIV)
[46] = molecular target: HIV Env of isolate UG021.16 (HIV)
[47] = molecular target: HIV Env of isolate UG024.2 (HIV)
[48] = molecular target: HIV Env of isolate ZM109.4 (HIV)
[49] = molecular target: HIV Env of isolate ZM249.1 (HIV)
[50] = molecular target: HIV Env of isolate ZM55.28a (HIV)

B1: ePGT121.15 (ePGT121.15.H6 VH and ePGT121.15.L1 VL) (antibody, V domains shown)
VH: QMQLQESGPGLVKPGETLSLTCSVSGASISSSYWSWLRETPGKGLEWIGYTHHSGDTNYAPSLKSRVHLGLHPSKNQVSLSLTSVTAADTAVYYCARTLHGRRIYGVVAFNEFFTYFYWEVWGKGTQVTVSS
VL: SDISVAPGETVRISCGGESIGSRAVQWYQHRAGQAPKLIIYNNQDRPPGIPERFSGSPDIDFGTTATLTITNVEAGDEATYYCHIWDSRRPTNWVFGGGTTLTVL
Question: What does the source list for B1?
Answer: IC50, pseudovirus neutralization [1]: 2.25 µg/mL; IC50, pseudovirus neutralization [2]: 0.009 µg/mL; IC50, pseudovirus neutralization [3]: > 50 µg/mL; IC50, pseudovirus neutralization [4]: 0.004 µg/mL; IC50, pseudovirus neutralization [5]: 0.001 µg/mL; IC50, pseudovirus neutralization [6]: > 50 µg/mL; IC50, pseudovirus neutralization [7]: 0.026 µg/mL; IC50, pseudovirus neutralization [8]: 0.362 µg/mL; IC50, pseudovirus neutralization [9]: 0.589 µg/mL; IC50, pseudovirus neutralization [10]: 0.385 µg/mL; IC50, pseudovirus neutralization [11]: 0.028 µg/mL; IC50, pseudovirus neutralization [12]: > 50 µg/mL; IC50, pseudovirus neutralization [13]: 0.004 µg/mL; IC50, pseudovirus neutralization [14]: 0.002 µg/mL; IC50, pseudovirus neutralization [15]: 0.161 µg/mL; IC50, pseudovirus neutralization [16]: 0.002 µg/mL; IC50, pseudovirus neutralization [17]: 0.005 µg/mL; IC50, pseudovirus neutralization [18]: > 50 µg/mL; IC50, pseudovirus neutralization [19]: 0.003 µg/mL; IC50, pseudovirus neutralization [20]: 0.363 µg/mL; IC50, pseudovirus neutralization [21]: 7.02 µg/mL; IC50, pseudovirus neutralization [22]: 0.042 µg/mL; IC50, pseudovirus neutralization [23]: 0.014 µg/mL; IC50, pseudovirus neutralization [24]: > 50 µg/mL; IC50, pseudovirus neutralization [25]: 0.004 µg/mL; IC50, pseudovirus neutralization [26]: 0.004 µg/mL; IC50, pseudovirus neutralization [27]: 5.07 µg/mL; IC50, pseudovirus neutralization [28]: > 50 µg/mL; IC50, pseudovirus neutralization [29]: > 50 µg/mL; IC50, pseudovirus neutralization [30]: 0.006 µg/mL; IC50, pseudovirus neutralization [31]: 0.004 µg/mL; IC50, pseudovirus neutralization [32]: > 50 µg/mL; IC50, pseudovirus neutralization [33]: 0.003 µg/mL; IC50, pseudovirus neutralization [34]: 0.516 µg/mL; IC50, pseudovirus neutralization [35]: > 50 µg/mL; IC50, pseudovirus neutralization [36]: 0.002 µg/mL; IC50, pseudovirus neutralization [37]: 0.016 µg/mL; IC50, pseudovirus neutralization [38]: > 50 µg/mL; IC80, pseudovirus neutralization [39]: 0.264 µg/mL; IC80, pseudovirus neutralization [40]: 0.008 µg/mL; IC80, pseudovirus neutralization [41]: 0.008 µg/mL; IC80, pseudovirus neutralization [42]: 0.005 µg/mL; IC80, pseudovirus neutralization [43]: 0.027 µg/mL; IC80, pseudovirus neutralization [44]: 0.007 µg/mL; IC80, pseudovirus neutralization [45]: 0.403 µg/mL; IC80, pseudovirus neutralization [46]: 0.022 µg/mL; IC80, pseudovirus neutralization [47]: 4.72 µg/mL; IC80, pseudovirus neutralization [48]: > 50 µg/mL; IC80, pseudovirus neutralization [49]: 1.01 µg/mL; IC80, pseudovirus neutralization [50]: 0.029 µg/mL
